Reference: patent publication US20220025070A1 (Novartis, published 2022)
Changes are numbered by the printed parent chain.

B1: anti-FXI/FXIa antibody NOV1401 (antibody, human IgG1, lambda, V domains shown)
VH: QVQLLESGGGLVQPGGSLRLSCAASGFTFSTAAMSWVRQAPGKGLEWVSGISGSGSSTYYADSVKGRFTISRDNSKNTLYLQMNSLRAEDTAVYYCARELSYLYSGYYFDYWGQGTLVTVSS
VL: QSVLTQPPSASGTPGQRVTISCSGSSSNIGSNDVSWYQQLPGTAPKLLIYKNYNRPSGVPDRFSGSKSGTSASLAISGLQSEDEADYYCSAWDQRQFDVVFGGGTKLTVLG
notes: Captured through Fc in Octet, free in solution in SET (biotinylated NOV1401 used only on the detection plate), amine-coupled in SPR; also called anti-Factor XI antibody NOV1401; target antibody
B2: anti-NOV1401 Fab IDT1 (parental, first generation) (Fab, V domains shown)
VH: QVQLLESGGGLVQPGGSLRLSCAASGFTFSDYAMSWVRQAPGKGLEWVSVIDYSSSNTYYADSVKGRFTISRDNSKNTLYLQMNSLRAEDTAVYYCAREGYSYRSIRFDYWGQGTLVTVSS
VL: DIQMTQSPSSLSASVGDRVTITCRASQSISSNLNWYQQKPGKAPKLLIYAASNLQSGVPSRFSGSGSGTDFTLTISSLQPEDFATYYCLQFDHTPFTFGQGTKVEIKR
notes: also called parental Fab; parental antibody IDT1
B3: anti-NOV1401 Fab IDT1D (HC1 + LC2) (Fab, V domains shown)
VH: B2 VH with V50T, D52A, S54V, S55G, S56A, N57P, Y59H
VL: B2 VL with F91Y, D92Y, T94L, F96Y
notes: Cross-clone: heavy chain of IDT1C with light chain of IDT1A; expressed in 293 HEK cells; also called 1DT1D
B4: anti-NOV1401 Fab IDT1A, E. coli format (Fab, V domains shown)
VH: B2 VH with Q1E
VL: B2 VL with F91Y, D92Y, T94L, F96Y
B5: anti-NOV1401 Fab IDT1C, mammalian format (HC1 + LC1) (Fab, V domains shown)
VH: B2 VH with V50T, D52A, S54V, S55G, S56A, N57P, Y59H
VL: B2 VL
B6: anti-NOV1401 Fab IDT1E (HC2 + LC2) (Fab, V domains shown)
VH: B2 VH with V50T, D52S, S54L, S55G, S56Q, N57E, T58K, Y59H
VL: B2 VL with F91Y, D92Y, T94L, F96Y
notes: Cross-clone: heavy chain of IDT1B with light chain of IDT1A; expressed in 293 HEK cells
B7: anti-NOV1401 Fab IDT1B, E. coli format (Fab, V domains shown)
VH: B2 VH with Q1E, V50T, D52S, S54L, S55G, S56Q, N57E, T58K, Y59H
VL: B2 VL

Experiments:
[1] = target: B6; test: SET: NOV1401 titrated against a constant Fab concentration in solution, free Fab captured on a biotin-NOV1401 streptavidin plate and detected with anti-human kappa-HRP
Protocol: (§1) 14 serial 2-fold dilutions of NOV1401 (from 0.1 pM to 1 nM) were prepared in assay buffer (DPBS (Life Technologies) containing 0.5% BSA and 0.02% Tween-20), and a constant concentration of anti-NOV1401 Fab was added (10 pM, 20 pM or 40 pM). A volume of 60 μl/well of each NOV1401-anti-NOV1401 mix was dispensed in triplicates to a 384-well polypropylene microtiter plate (polypropylene MTP: Greiner, Cat. #781280). Assay buffer served as a negative control and a sample containing only anti-NOV1401 served as a positive control (Bmax). The plate was sealed and incubated overnight (o/n, at least 20 h) at room temperature (RT) on a shaker. A 384-well streptavidin (SA) plate from Life Technologies (Cat. #15505) was coated with 30 μl/well of Biotin-NOV1401 diluted in assay buffer for 2 h at RT on a shaker, then washed three times with wash buffer (PBS containing 0.05% Tween 20). After that 30 μl/well of the equilibrated NOV1401-anti-NOV1401 mix was transferred from the polypropylene MTP (Greiner) to the coated SA plate and incubated for 30 min at RT on a shaker. After an additional wash step, 30 μl/well anti-human Kappa LC-HRP detection antibody (BETHYL, Cat. #A80-115P; 0.05 μg/ml diluted in assay buffer) was added to each well and incubated for 60 min at RT on a shaker. The SA plate was washed, and 30 μl/well LumiGLO read buffer (KPL, Cat. #54-61-01; LumiGLO Peroxidase Chemiluminescent Substrate) was added and incubated for 1 min at RT. RLU signal was measured by the SPECTRAMAXM5 (Molecular Devices, Sunnyvale, Calif. USA).
(§2) KD and Bₘₐₓ were set as variables to be fitted by GraphPad Prism 7.03.

[2] = target: B5; test: as above
Protocol: as §1, §2

[3] = target: B3; test: as above
Protocol: as §1, §2

[4] = target: B1; test: SPR (ProteOn XPR36), NOV1401 amine-coupled, Fab as analyte, 25 C, Langmuir 1:1
Protocol: SPR binding experiments were performed on a ProteOn XPR36 instrument (Bio-Rad Laboratories, Inc.) in PBS/T buffer (50 mM phosphate, 150 mM NaCl, pH 7.4, 0.05% v/v Tween-20) at 25° C. NOV1401 (‘Ligand’) was immobilized onto an activated ProteOn GLC sensor chip (Bio-Rad Laboratories, Inc.) using standard amine coupling procedures as described by the manufacturer. Briefly, NOV1401 was injected at a concentration of […] in 20 mM sodium acetate, pH 5.0 and at a flow rate of 30 μl/min for 10 min. Unreacted groups were blocked by injecting 1 M ethanolamine.
For kinetic studies anti-NOV1401 Fabs (‘Analytes’) were diluted in PBS/T buffer to generate a dilution series with concentrations ranging from 0.125-4 nM. Fabs were injected onto surfaces with immobilized NOV1401 at a flow rate of 100 μL/min and sensorgrams were recorded for association and dissociation times of 220 s and 1800 s, respectively. Blank surfaces were used for background corrections. There was no need to regenerate surfaces since the ProteOn protein interaction array system allows to run up to six binding experiments on an identical surface in parallel.
Data processing and analysis including kₒₙ, koff, and KD determination were performed with the ProteOn Managerrm software version 3.1.0.6. Sensorgrams were fitted by applying a Langmuir 1:1 binding model (Rmax set at global) and dissociation constants were calculated from kₒₙ and koff.

[5] = target: B1; test: solution equilibrium titration (SET), constant Fab with titrated NOV1401, RT, 1:1 fit, average
Protocol: as §1
(§3) All measurements were performed as triplicates and average RLU signals were calculated. Data were baseline-adjusted by subtracting the value for the lowest concentration from all data points and plotted against the corresponding NOV1401 concentration. The KD was determined by non-linear curve fitting using a 1:1 fit model as shown in Equation (according to Haenel et al., 2005, Anal Biochem. 339(1):182-4):
as §2

[6] = target: B1; test: cell-based or functional assay
[7] = target: B1; test: solution equilibrium titration (SET), 1:1 fit, average KD printed in the panel
Protocol: as §1, with “A” for “14 serial 2-fold dilutions of NOV1401 (from 0.1 pM to 1 nM) were prepared in assay buffer (DPBS (Life Technologies) containing 0.5% BSA and 0.02% Tween-20), and a constant concentration of anti-NOV1401 Fab was added (10 pM, 20 pM or 40 pM). A”
as §3, §2

[8] = target: B1; test: Octet bio-layer interferometry, NOV1401 captured on anti-human IgG Fc (AHC) sensors, Fab at 25-400 nM in solution
Protocol: Affinity assessments were performed via Bio-Layer Interferometry technology. Anti-Human IgG Fc Capture (AHC) biosensors (Fortebio, Ref. 18-5060) were used to capture NOV1401. […] Buffer (Fortebio, Ref. 18-5032) alone was used for background (0 nM) determination. Fab association and dissociation were each recorded by measuring the change in layer thickness (in nanometers, nm) with time for 800 s each, all under computer control.

Binder | kon [4] | Kd [5] | aPTT reversal, NOV1401/anti-NOV1401 ratio (n/n) 1/3 [6] | aPTT reversal, NOV1401/anti-NOV1401 ratio (n/n) 1/9 [6] | aPTT reversal, NOV1401/anti-NOV1401 ratio (n/n) 1/30 [6] | Kd [7] | other results
B1 |  |  |  |  |  |  | IC50 (read off the curve) [1]: ~10 pM; IC50 (read off the curve) [2]: 10 to 20 pM; IC50 (read off the curve) [3]: ~20 pM
B2 | 550000 M⁻¹ s⁻¹ | 110 pM |  |  |  |  | Kd [4]: 440 pM; koff [4]: 0.00024 s⁻¹
B3 | 440000 M⁻¹ s⁻¹ |  | 63% | 72% | 78% | 2.5 pM | 
B4 |  |  |  |  |  |  | binding result [8]: binds
B5 | 250000 M⁻¹ s⁻¹ | 9.6 pM | 79% | 80% | 78% | 9.6 pM | 
B6 | 690000 M⁻¹ s⁻¹ | 2.5 pM | 72% | 84% | 83% | 7 pM | 
B7 |  |  |  |  |  |  | binding result [8]: binds
